Measurements taken from patent US20230357387A1 (published 2023).
Substitutions are numbered along the chain they refer to.

B1: *51B12 H0L2 (antibody)
chain 1: not shown
chain 2: DIVMTQSPDSLAVSLGERATINCRASKSVSTSGYSYMHWYQQKPGQPPKFLIYLASNLESGVPDRFSGSGSGTDFTLTISSLQAEDVAVYYCQHSREVPYTFGGGTKVEIKRTVAAPSVFIFPPSDEQLKSGTASVVCLLNNFYPREAKVQWKVDNALQSGNSQESVTEQDSKDSTYSLSSTLTLSKADYEKHKVYACEVTHQGLSSPVTKSFNRGEC
B2: 51B12H0L1 (antibody)
chain 1: not shown
chain 2: B1 chain 2 with M4L, F50L
B3: 51B12 H0L0 (antibody)
chain 1: not shown
chain 2: B1 chain 2 with F50L
B4: 51B12 H0L3 (antibody)
chain 1: not shown
chain 2: B1 chain 2 with M4L
B5: 63A11 parental antibody (antibody, V domains shown)
VH: EVQLVESGGGLVKPGGSRKLSCAASGFTFSDHGMHWVRQAPEKGLEWVAYISSGSSAIFYADTVKGRFTMSRDNAKNTLFLQMTSLRSEDTAMYFCARWTNLYAMDYWGQGTSVTVSS
VL: DIVLTQSPASLAVSLGQRATISCRASKSVSTSGYSYMHWYQQKPGQPPKLLIYLASNLESGVPARFSGSGSGTDFTLNIHPVEEEDAATYYCQHSRELPLTFGAGTKLELKR
B6: 63A11 H1/L0 (antibody)
chain 1: not shown
chain 2: B1 chain 2 with F50L, V98L, Y100L
B7: 63A11 H3/L0 (antibody)
chain 1: not shown
chain 2: B1 chain 2 with F50L, V98L, Y100L
B8: 63A11 H3/L1 (antibody)
chain 1: not shown
chain 2: B1 chain 2 with M4L, F50L, V98L, Y100L
B9: 63A11 H0/L1 (antibody)
chain 1: not shown
chain 2: B1 chain 2 with M4L, F50L, V98L, Y100L
B10: 63A11 H1/L1 (antibody)
chain 1: not shown
chain 2: B1 chain 2 with M4L, F50L, V98L, Y100L
B11: 63A11 H2/L1 (antibody)
chain 1: not shown
chain 2: B1 chain 2 with M4L, F50L, V98L, Y100L
B12: 63A11 H2/L0 (antibody)
chain 1: not shown
chain 2: B1 chain 2 with F50L, V98L, Y100L
B13: 63A11 H0/L0 (antibody)
chain 1: not shown
chain 2: B1 chain 2 with F50L, V98L, Y100L
B14: 63A11 H0L1 (antibody)
chain 1: not shown
chain 2: B1 chain 2 with M4L, F50L, V98L, Y100L
B15: 63A11_H2/_L0 (antibody)
chain 1: not shown
chain 2: B1 chain 2 with F50L, V98L, Y100L
B16: 63A11_H2/_L1 (antibody)
chain 1: not shown
chain 2: B1 chain 2 with M4L, F50L, V98L, Y100L
B17: 63A11_H1/_H1 (antibody)
chain 1: not shown
chain 2: B1 chain 2 with M4L, F50L, V98L, Y100L
B18: 63A11_H0/_L1 (antibody)
chain 1: not shown
chain 2: B1 chain 2 with M4L, F50L, V98L, Y100L
B19: 63A11_H1/_L0 (antibody)
chain 1: not shown
chain 2: B1 chain 2 with F50L, V98L, Y100L
B20: 63A11_H0/_L0 (antibody)
chain 1: not shown
chain 2: B1 chain 2 with F50L, V98L, Y100L
B21: 63A11_H3/_L0 (antibody)
chain 1: not shown
chain 2: B1 chain 2 with F50L, V98L, Y100L
B22: 63A11_H3/_L1 (antibody)
chain 1: not shown
chain 2: B1 chain 2 with M4L, F50L, V98L, Y100L

target: T1, human ZIP12 extracellular domain expressed as a GST fusion protein (UniProt Q504Y0 1-202); assay: SPR; replicate 1

Kd	Binder
0.706 nM	B1
4.17 nM	B2
1.39 nM	B3
0.605 nM	B4

target: T1, human ZIP12 extracellular domain …; assay: ELISA

EC50	Binder
0.0017 µg/mL	B5
0.0018 µg/mL	B6
0.002 µg/mL	B7
0.0019 µg/mL	B8
0.0016 µg/mL	B9
0.0015 µg/mL	B10
0.0016 µg/mL	B11
0.0018 µg/mL	B12
0.0018 µg/mL	B13

target: T1, human ZIP12 extracellular domain …; assay: SPR; summary value

Kd	Binder
0.9 nM	B14
0.7 nM	B4

target: T1, human ZIP12 extracellular domain …; assay: SPR; replicate 1; remark: another data set of the same source

Kd	Binder
0.757 nM	B5
2.1 nM	B15
0.97 nM	B16
1.82 nM	B17
0.888 nM	B18
1.32 nM	B19
2.38 nM	B20
1.23 nM	B21
1.28 nM	B22

target: human ZIP12 on human ZIP12 expressing transfectant cells (UniProt Q504Y0 1-691); assay: flow cytometry

EC50	Binder
0.233 µg/mL	B5
0.508 µg/mL	B6
0.583 µg/mL	B7
0.5 µg/mL	B8
0.338 µg/mL	B9
0.515 µg/mL	B10
0.586 µg/mL	B11
0.411 µg/mL	B12
0.778 µg/mL	B13

target: T1, human ZIP12 extracellular domain …; assay: SPR; replicate 2

Kd	Binder
0.757 nM	B5
2.04 nM	B15
1.14 nM	B16
1.96 nM	B17
0.889 nM	B18
1.62 nM	B19
1.95 nM	B20
1.62 nM	B21
1.41 nM	B22

target: T1, human ZIP12 extracellular domain …; assay: SPR; replicate 2; remark: another data set of the same source

Kd	Binder
2.16 nM	B1
1.83 nM	B2
1.39 nM	B3
0.785 nM	B4
